Experimental findings from publication PMC2120187 are described below.

For this test, the target named is murine IgG heavy chain (murine). Description: immunoprecipitation with anti-mouse IgG and non-reducing SDS-PAGE.

In general, stoichiometry N refers to a count of units in the complex or per binding partner. murine IgG heavy chain registered a stoichiometry N of 2.
